Data reported in patent US20260193375A1 (NORMUNITY, published 2026).

T1: human LY6E (R&D Systems) (human, UniProt Q16553 21-101, limits assumed)
T1 construct: also called hLY6E
T1 sequence (looked up): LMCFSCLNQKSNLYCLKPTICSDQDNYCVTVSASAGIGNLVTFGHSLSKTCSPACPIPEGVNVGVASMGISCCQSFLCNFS

T2: rLY6K-mFc (rat)
T2 chain: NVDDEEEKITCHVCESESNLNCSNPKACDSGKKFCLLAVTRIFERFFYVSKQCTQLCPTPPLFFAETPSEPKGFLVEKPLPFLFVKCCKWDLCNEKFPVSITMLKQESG

T3: hLY6K-mFc (human, UniProt Q17RY6 18-138)
T3 construct: not shown: mFc
T3 sequence: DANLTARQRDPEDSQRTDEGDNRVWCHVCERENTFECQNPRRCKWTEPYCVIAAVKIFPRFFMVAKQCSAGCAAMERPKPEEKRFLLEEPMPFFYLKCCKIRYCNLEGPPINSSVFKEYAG

T4: Human LY6K (R&D Systems) (human, UniProt Q17RY6 18-138, limits assumed)
T4 construct: Bought from R&D Systems, coated on ELISA plates; also called hLY6K
T4 sequence: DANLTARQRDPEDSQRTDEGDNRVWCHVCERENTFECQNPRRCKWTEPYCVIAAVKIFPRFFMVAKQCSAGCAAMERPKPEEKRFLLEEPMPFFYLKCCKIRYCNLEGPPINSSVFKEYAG

T5: hLY6K-his (human, UniProt Q17RY6 18-138, limits assumed)
T5 construct: not shown: his tag
T5 sequence: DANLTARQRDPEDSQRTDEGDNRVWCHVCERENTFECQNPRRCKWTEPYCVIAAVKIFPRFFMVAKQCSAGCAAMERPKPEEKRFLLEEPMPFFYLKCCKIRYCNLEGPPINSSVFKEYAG

T6: cell-surface anchored LY6K (human, UniProt Q17RY6 18-138)
T6 construct: the cell is named under assay; also called LY6K on target cells
T6 sequence: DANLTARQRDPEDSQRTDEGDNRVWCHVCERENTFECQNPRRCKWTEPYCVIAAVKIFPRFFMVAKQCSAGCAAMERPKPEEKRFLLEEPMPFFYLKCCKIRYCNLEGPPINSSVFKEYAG


How the values were obtained:
[1] = target: T7, cynomolgus monkey LY6K (R&D Systems) (cynomolgus monkey); experiment: ELISA, coated antigen, IgG1 at 10 ug/ml
T7 construct: also called cyLY6K

[2] = target: T8, rat LY6K (R&D Systems) (rat); experiment: ELISA, coated antigen, IgG1 at 10 ug/ml
T8 construct: also called rLY6K

[3] = target: T1, human LY6E (R&D Systems); experiment: ELISA, coated antigen, IgG1 at 10 ug/ml
[4] = target: T2, rLY6K-mFc; experiment: SPR (Carterra LSA), mAb captured on anti-human IgG-Fc, antigen as analyte
[5] = target: cyLY6K-mFc (cynomolgus monkey); experiment: as above
[6] = target: T3, hLY6K-mFc; experiment: as above
[7] = target: T4, Human LY6K (R&D Systems); experiment: ELISA, coated antigen, IgG1 at 10 ug/ml
[8] = target: T5, hLY6K-his; experiment: SPR (Carterra LSA), mAb captured on anti-human IgG-Fc, antigen as analyte
[9] = target: T6, cell-surface anchored LY6K; experiment: IHC, paraffin sections of 293 cells overexpressing LY6K

Row | Binder | % of maximum of commercial anti-LY6K mAb on human LY6K [1] | % of maximum of commercial anti-LY6K mAb on human LY6K [2] | % of maximum of commercial anti-LY6K mAb on human LY6K [3] | Kd [4] | Kd [5] | Kd [6] | % of maximum of commercial anti-LY6K mAb on human LY6K [7] | binding result [8] | binding result [6] | binding result [9]
1 | anti-LY6K antibody 3047 (antibody, V domains shown) VH: EVQLVESGGGLVQPGGSLRLSCAASGFTFSSYSMNWVRQAPGKGLEWVSGINWNGGSTGYADSVKGRFTISRDNAKNSLYLQMNSLRAEDTALYYCARGRLFDYWGQGTLVTVSS VL: not shown | 3% | 1.5% | 1.7% | 129 nM | 21.6 µM | 2720 nM |  |  |  | 
2 | anti-LY6K antibody 3522 (antibody, V domains shown) VH: QVQLQQSGPGLVKPSQTLSLTCAISGDSVSSNSAAWNWIRQSPSRGLEWLGRTYYRSKWYNDYAVSVKSRITINPDTSKNQFSLQLNSVTPEDTAVYYCARECSGSYYRFDPWGQGTLVTVSS VL: DIVMTQTPLSSPVTLGQPASISCRSSQSLVHSNGNTYLSWLQQRPGQPPRLLIYKISHRFSGVPDRFSGSGAGTDFTLKIRRVEAEDVGVYYCMQATQFPYTFGQGTKLEIK | 2.6% | 0.7% | 4.3% |  |  |  | 2.1% | no binding (tested: up to 1.266-6 M as printed) | no binding (tested: up to 1.266-6 M as printed) | no binding (tested: 5 ug/ml)
3 | anti-LY6K antibody 3704 (antibody, V domains shown) VH: EVQLVESGGGLVQPGRSLRLSCAASGFTFDDYAMHWVRQAPGKGLEWVSGISWKIITIGYADSVKGRFTISRDNVKNSLYLQMNSLRAEDTALYYCAKDSRTGLDYWGQGTLVTVSS VL: DIQMTQSPSSLSASVGDRVTITCRASQTISSYLNWYQQKPGKAPKLLIYAASSLQSGVPSRFSGSGSGTDFTLTISSLQPEDFATYYCQQTYTAPLTFGPGTKVDIK | 2% | 0.6% | 3.2% |  |  |  | 2.2% |  |  | no binding (tested: 5 ug/ml)
